Laboratory results published in paper PMC5115869.

Biological target: GCN4pLI-HCN2(CNBD) tetramer (human)
Assay: SEC; GCN4pLI-HCN2(CNBD) in solution; column and buffer not told for this run

stoichiometry N: 4
Substance: GCN4pLI-HCN2(CNBD) tetramer
